In the supplement of paper PMC12764529:
± gives the half width of the 95% confidence interval.

Columns and labels:
[1] = folding stability dG unfold (combined trypsin and chymotrypsin); higher = more stable
In short: (§1)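 Sequencing followed digestion of designed mini-proteins with trypsin and chymotrypsin, each at 11 concentrations in threefold dilutions together with a no-protease condition. The mini-proteins were under 80 residues, had no cysteine, sat in a PA-tagged cDNA display construct, and were kept only if AlphaFold2 dimer inter-PAE was above 15. From the counts, Bayesian fitting gave K50, and unfolding free energy was derived against a sequence-predicted unfolded-state K50 and a shared folded-state K50, per protease or combined.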

[2] = folding stability dG unfold from chymotrypsin proteolysis; higher = more stable
In short: as §1

[3] = folding stability dG unfold from trypsin proteolysis; higher = more stable
In short: as §1

Sequence	folding stability dG unfold [1] [kcal/mol]	folding stability dG unfold [2] [kcal/mol]	folding stability dG unfold [3] [kcal/mol]
SAGGSAGGSPGMKPVEIPFRNPDGKNWKITSIYVMPDGPAMITIEDPNNGKERQIPAEDIDEFSAGGSAGGS [r12_488_TrROS]	-0.136 ± 0.21	0.227 ± 0.32	-0.911 ± 0.58
SAGGSAGGSPGPGTEVEVRYRHPATGRWYPGVAVFTPDGSIRVYFPALGTTVTVPPHTVEPVPSAGGSAGGS [r12_726_TrMRF]	1.93 ± 0.053	1.93 ± 0.031	1.98 ± 0.056
SAGGSAGGSPGTLIEVRFPDRIVRIYQLPPGVYRVEVYEPPYLVATIELPNVTAEEAARLALGSAGGSAGGS [r20_8_TrMRF]	2.72 ± 0.054	3.071 ± 0.021	1.61 ± 0.034
SAGGSAGGSPIKIEFPPGIKEIEPIENDPNKTIMFRFPDYLVRIRINPKNGKIDIEIVPPGDMSAGGSAGGS [r12_858_TrROS]	1.82 ± 0.11	1.9 ± 0.027	1.94 ± 0.028
SAGGSAGGSPKWKTIEITVLVPGMPAEEIAKNIANNFGIEITDIDVQLFPNGWVVVSATIRVKSAGGSAGGS [r12_359_TrROS]	2.99 ± 0.096	3.16 ± 0.051	2.59 ± 0.087
SAGGSAGGSPLVKTTTSVDPVGPDRTLTTSTATLPSGGTTVTTTTFLTSPDGTVPVATTTTPSASAGGSAGG [r6_471_JUSTAS]	-0.11 ± 0.21	0.24 ± 0.14	-0.461 ± 0.15
SAGGSAGGSPMKIEAVELEDGTVAYRLEDGTVLLVTKNEDGTYTVKVFKNGKLVEEKEIKLPPSAGGSAGGS [r12_451_TrROS_Hall]	2.99 ± 0.071	3.277 ± 0.03	2.28 ± 0.069
SAGGSAGGSPNPKVVPFTFPVVIPDEDGHPYLVNVTVTAIPDTDTYYARITYPDGRVEDFVLASAGGSAGGS [r12_286_TrMRF]	2.33 ± 0.04	2.494 ± 0.015	1.94 ± 0.049
SAGGSAGGSPPGWTIMMFEITISITVPRVEVYDPKDGKPRAEVPYVRVSIPIPIFIIFPAGAFSAGGSAGGS [r12_600_TrROS]	3.77 ± 0.11	4.24 ± 0.12	2.93 ± 0.17
SAGGSAGGSPPNWKTIPITFWVDPGDVEEFANILRDLGLEIEDVEVEPNPDGHVWVTITIVIPSAGGSAGGS [r12_905_TrROS]	3.33 ± 0.18	3.54 ± 0.1	2.57 ± 0.17
SAGGSAGGSPRIVRVEVDPPPGGLGLARIEVEVVDPSTGVPRLERRTVPVPLGDWKKLLDFLGSAGGSAGGS [r12_691_TrMRF]	2.23 ± 0.15	2.25 ± 0.054	2.06 ± 0.051
SAGGSAGGSPVKDPDGKEVVPIQMTFIIRDPEMGKPVLITITFYIDPAPGGKIKDISIDIFPLSAGGSAGGS [r12_0_TrROS]	4.04 ± 0.17	4.29 ± 0.17	3.51 ± 0.27
SAGGSAGGSPVLVRVYARDEDGNETPVAEIALPVENDNPEEAAKKAREIAKKLGVKEYRVEIESAGGSAGGS [r12_569_TrMRF]	1.48 ± 0.04	1.56 ± 0.046	1.37 ± 0.031
SAGGSAGGSPVVVIEVPAEDLSPEDIKALLAAAPDENAVIVITNPDGEKRTLVFTPDGRIEPLSAGGSAGGS [r12_1054_TrROS_Hall]	0.593 ± 0.042	0.451 ± 0.1	0.681 ± 0.024
SAGGSAGGSPWKKVKFKFMFPFPNYYVRISIEIWVNPGDNEIMIEMSIEIFPIPPGDNKAFKDSAGGSAGGS [r12_885_TrROS]	3.31 ± 0.36	3.9 ± 0.11	2.79 ± 0.24
SAGGSAGGSPYKEVPVPVRIHSPDGETHEFPGTIWKSPDDGMLEIRFPGNGKKHKIPLNDIQISAGGSAGGS [r12_772_TrROS]	-0.699 ± 0.22	-0.606 ± 0.19	-1.5 ± 0.59

Sequence	folding stability dG unfold [1] [kcal/mol]	folding stability dG unfold [2] [kcal/mol]	folding stability dG unfold [3] [kcal/mol]
SAGGSAGGSPYLVTVTLPDGSTLTHTIPVPPDVPLSEEEIRERIRREYPGPPLGPITIERPTESAGGSAGGS [r12_262_JUSTAS]	1.35 ± 0.09	1.62 ± 0.047	0.885 ± 0.015
SAGGSAGGSRLDATRALLDKLPPGSVTVTVYVNGKPVTFRFGSREEIEEAIEANPDVEVEIEPASAGGSAGG [r6_421_TrMRF]	1.38 ± 0.098	1.74 ± 0.16	0.93 ± 0.13
SAGGSAGGSSAVVPLPDVVLVVLTFPDGGPPVLALLFPPTGRVVFVHPDSVTVAPFAPGGSLLSAGGSAGGS [r12_536_TrMRF]	1.51 ± 0.07	1.74 ± 0.062	1.1 ± 0.036
SAGGSAGGSSFSVEVIENPDSDVILRKIHFDNFTVIPLFDPSTGKIVSVVVQFPDGSWYTFPLSAGGSAGGS [r12_563_TrMRF]	2.51 ± 0.11	2.78 ± 0.053	2.18 ± 0.1
SAGGSAGGSSGKYTITVTRKNPDGTPLGVFPIEVEGESEEEAKALAEELKNQPDVVEVKVTYVDSAGGSAGG [r6_475_JUSTAS]	1.22 ± 0.048	1.02 ± 0.054	1.37 ± 0.027
SAGGSAGGSSGTVTLRLRFRVVDLDPATGEASEHEFELTLTVPIELPAAAPPATPTYGLTLPGSAGGSAGGS [r12_140_TrMRF]	2.39 ± 0.16	2.79 ± 0.074	0.895 ± 0.12
SAGGSAGGSSKTFKDPDGWTITVEPLDGGVKVEIYWPDGQRQEHLIPPGEPIKIDPNGWYIEISAGGSAGGS [r12_281_TrROS]	1.69 ± 0.19	2.11 ± 0.061	0.5 ± 0.069
SAGGSAGGSSMPIYTVTVTYSDGTVRTYELTPEEIEAFAAEVPDAEVTELPPGKVEVTVKIPASAGGSAGGS [r20_231_JUSTAS]	2.33 ± 0.07	2.49 ± 0.027	2.01 ± 0.096
SAGGSAGGSSMTITVTDLVTGEPGEIPEELKAELAAEAEESGSAVTFEITTPDGKKYRAEITPSAGGSAGGS [r12_41_JUSTAS]	1.1 ± 0.1	1.13 ± 0.088	0.928 ± 0.029
SAGGSAGGSSPSSVSTYDIEFPDGTKIKITVTLGPGTPVVEITTLTESPPVKRVANTEEVKFESAGGSAGGS [r20_100_JUSTAS]	0.696 ± 0.19	0.995 ± 0.041	-0.0821 ± 0.059
SAGGSAGGSSPVKQVTEVKDPHSSLPLLRTTETLVLPNGEVVTKVKFIDTKTGKSTEEIFTIPSAGGSAGGS [r20_229_JUSTAS]	0.833 ± 0.089	1.02 ± 0.13	0.724 ± 0.046
SAGGSAGGSSPVPVKVSANSVEPGESSSSNINIPKEALEKDSLTPEELKKILQKQGPNVTITGSAGGSAGGS [r20_221_JUSTAS]	-0.0407 ± 0.23	0.124 ± 0.049	-0.423 ± 0.086
SAGGSAGGSSQEREFTLPDPDGKDIKITMHQNPDGRPRAEIENKDGEPVKEFDSPDDIEDLLKSAGGSAGGS [r20_202_TrROS]	-0.0562 ± 0.22	0.168 ± 0.06	-0.273 ± 0.2
SAGGSAGGSSQRIKIEDIEPPPNGQWRVRIKMPNGKEREVTMPPDKLEIELPPNITDVSLWPVSAGGSAGGS [r20_194_TrROS]	4.01 ± 0.33	3.91 ± 0.33	3.88 ± 0.16
SAGGSAGGSSSSSVVTKPLPEEPLLVVTTTLPPSTPPGTTSTTTIIEPETGKVLETTDINIPSSAGGSAGGS [r12_564_JUSTAS]	1.41 ± 0.11	0.954 ± 0.1	1.92 ± 0.13
